Results as given in the supplement of paper PMC9112550, “Optimization of the antimicrobial peptide Bac7 by deep mutational scanning” (BMC Biology, 2022).

Test system: Escherichia coli TOP10
Assay: shrunken log2 fold change of peptide-encoding DNA abundance (4.5 h post-induction vs induction); higher = less antimicrobial activity (less host growth inhibition)
Conditions: time post-induction: 4.5 h; library: site-saturation at positions 5, 18, 19, 20
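Note: peptides expressed intracellularly from a pBAD plasmid library in pooled LB shake-flask culture, induced with 0.3% L-arabinose, DNA abundance read by NGS, three biological replicates, DESeq2 with apeglm shrinkage.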

Sequence	shrunken log2 fold change
RRIRSRPPRLPRPRPRPKHFPRP	0.0852
RRIRSRPPRLPRPRPRPKHRPRP	-0.00685
RRIRSRPPRLPRPRPRPKIHPRP	-0.0501
RRIRSRPPRLPRPRPRPKIIPRP	-0.0525
RRIRSRPPRLPRPRPRPKKWPRP	0.0341
RRIRSRPPRLPRPRPRPKLQPRP	0.117
RRIRSRPPRLPRPRPRPKPCPRP	0.122
RRIRSRPPRLPRPRPRPKPFPRP	-0.646
RRIRSRPPRLPRPRPRPKQLPRP	0.0372
RRIRSRPPRLPRPRPRPKQRPRP	0.161
RRIRSRPPRLPRPRPRPKRDPRP	0.0509
RRIRSRPPRLPRPRPRPKTNPRP	0.00294
RRIRSRPPRLPRPRPRPKVKPRP	0.0666
RRIRSRPPRLPRPRPRPKWYPRP	-0.336
RRIRSRPPRLPRPRPRPKYRPRP	0.127
RRIRSRPPRLPRPRPRPLAGPRP	0.225
RRIRSRPPRLPRPRPRPLAMPRP	0.087
RRIRSRPPRLPRPRPRPLCAPRP	0.281
RRIRSRPPRLPRPRPRPLCWPRP	0.131
RRIRSRPPRLPRPRPRPLDGPRP	-0.365
RRIRSRPPRLPRPRPRPLDPPRP	-0.0203
RRIRSRPPRLPRPRPRPLFAPRP	0.0687
RRIRSRPPRLPRPRPRPLHAPRP	0.556
RRIRSRPPRLPRPRPRPLHCPRP	0.0547
RRIRSRPPRLPRPRPRPLIKPRP	-0.258

Sequence	shrunken log2 fold change
RRIRSRPPRLPRPRPRPLKIPRP	-0.309
RRIRSRPPRLPRPRPRPLLNPRP	-0.117
RRIRSRPPRLPRPRPRPLMCPRP	-0.471
RRIRSRPPRLPRPRPRPLPPPRP	0.518
RRIRSRPPRLPRPRPRPLQMPRP	0.24
RRIRSRPPRLPRPRPRPLSQPRP	-0.00748
RRIRSRPPRLPRPRPRPLTWPRP	-0.104
RRIRSRPPRLPRPRPRPLVGPRP	0.0355
RRIRSRPPRLPRPRPRPLVSPRP	0.208
RRIRSRPPRLPRPRPRPLVYPRP	-0.206
RRIRSRPPRLPRPRPRPLYEPRP	-0.438
RRIRSRPPRLPRPRPRPLYRPRP	-0.346
RRIRSRPPRLPRPRPRPLYVPRP	-0.467
RRIRSRPPRLPRPRPRPMAHPRP	0.218
RRIRSRPPRLPRPRPRPMANPRP	-0.397
RRIRSRPPRLPRPRPRPMASPRP	0.088
RRIRSRPPRLPRPRPRPMCAPRP	0.29
RRIRSRPPRLPRPRPRPMEDPRP	0.189
RRIRSRPPRLPRPRPRPMFAPRP	0.154
RRIRSRPPRLPRPRPRPMFDPRP	-0.0808
RRIRSRPPRLPRPRPRPMFQPRP	0.0483
RRIRSRPPRLPRPRPRPMGVPRP	-0.084
RRIRSRPPRLPRPRPRPMHCPRP	0.377
RRIRSRPPRLPRPRPRPMHWPRP	-0.159
RRIRSRPPRLPRPRPRPMIAPRP	0.0435

Sequence	shrunken log2 fold change
RRIRSRPPRLPRPRPRPMKGPRP	-0.311
RRIRSRPPRLPRPRPRPMLHPRP	-0.424
RRIRSRPPRLPRPRPRPMLNPRP	-0.198
RRIRSRPPRLPRPRPRPMLQPRP	-0.0416
RRIRSRPPRLPRPRPRPMPQPRP	0.126
RRIRSRPPRLPRPRPRPMQDPRP	0.125
RRIRSRPPRLPRPRPRPMQHPRP	-0.122
RRIRSRPPRLPRPRPRPMQNPRP	0.22
RRIRSRPPRLPRPRPRPMQPPRP	0.0538
RRIRSRPPRLPRPRPRPMQWPRP	-0.145
RRIRSRPPRLPRPRPRPMSNPRP	0.129
RRIRSRPPRLPRPRPRPMSYPRP	0.0443
RRIRSRPPRLPRPRPRPMTAPRP	-0.0379
RRIRSRPPRLPRPRPRPMTKPRP	0.0651
RRIRSRPPRLPRPRPRPMTTPRP	0.572
RRIRSRPPRLPRPRPRPMVQPRP	0.13
RRIRSRPPRLPRPRPRPNCFPRP	0.0876
RRIRSRPPRLPRPRPRPNCQPRP	-0.0974
RRIRSRPPRLPRPRPRPNCYPRP	-0.0528
RRIRSRPPRLPRPRPRPNEMPRP	-0.252
RRIRSRPPRLPRPRPRPNFQPRP	-0.089
RRIRSRPPRLPRPRPRPNGMPRP	-0.0245
RRIRSRPPRLPRPRPRPNGYPRP	-0.12
RRIRSRPPRLPRPRPRPNHAPRP	-0.278
RRIRSRPPRLPRPRPRPNHFPRP	-0.21

Sequence	shrunken log2 fold change
RRIRSRPPRLPRPRPRPNHNPRP	-0.784
RRIRSRPPRLPRPRPRPNKVPRP	-0.283
RRIRSRPPRLPRPRPRPNLKPRP	0.087
RRIRSRPPRLPRPRPRPNMYPRP	-0.635
RRIRSRPPRLPRPRPRPNNCPRP	-0.186
RRIRSRPPRLPRPRPRPNPRPRP	0.0955
RRIRSRPPRLPRPRPRPNPYPRP	-0.558
RRIRSRPPRLPRPRPRPNQGPRP	0.153
RRIRSRPPRLPRPRPRPNQMPRP	0.0306
RRIRSRPPRLPRPRPRPNQRPRP	0.0415
RRIRSRPPRLPRPRPRPNRWPRP	-0.0554
RRIRSRPPRLPRPRPRPNTMPRP	-0.154
RRIRSRPPRLPRPRPRPNTQPRP	-0.274
RRIRSRPPRLPRPRPRPNWMPRP	-0.0249
RRIRSRPPRLPRPRPRPPAGPRP	0.704
RRIRSRPPRLPRPRPRPPARPRP	0.876
RRIRSRPPRLPRPRPRPPCQPRP	-0.0943
RRIRSRPPRLPRPRPRPPDAPRP	0.415
RRIRSRPPRLPRPRPRPPEGPRP	0.704
RRIRSRPPRLPRPRPRPPFMPRP	-0.0803
RRIRSRPPRLPRPRPRPPFQPRP	0.073
RRIRSRPPRLPRPRPRPPGHPRP	0.167
RRIRSRPPRLPRPRPRPPKPPRP	0.149
RRIRSRPPRLPRPRPRPPKWPRP	0.329
RRIRSRPPRLPRPRPRPPLNPRP	0.0261

Sequence	shrunken log2 fold change
RRIRSRPPRLPRPRPRPPMDPRP	-0.0324
RRIRSRPPRLPRPRPRPPMSPRP	-0.0301
RRIRSRPPRLPRPRPRPPPRPRP	1.09
RRIRSRPPRLPRPRPRPPSIPRP	0.2
RRIRSRPPRLPRPRPRPPTGPRP	0.369
RRIRSRPPRLPRPRPRPPTKPRP	0.0856
RRIRSRPPRLPRPRPRPPVAPRP	0.403
RRIRSRPPRLPRPRPRPPVPPRP	0.378
RRIRSRPPRLPRPRPRPPWVPRP	0.433
RRIRSRPPRLPRPRPRPPYKPRP	-0.465
RRIRSRPPRLPRPRPRPQCRPRP	-0.0553
RRIRSRPPRLPRPRPRPQDWPRP	-0.0642
RRIRSRPPRLPRPRPRPQEPPRP	-0.284
RRIRSRPPRLPRPRPRPQFSPRP	-0.152
RRIRSRPPRLPRPRPRPQFWPRP	0.268
RRIRSRPPRLPRPRPRPQGQPRP	-0.154
RRIRSRPPRLPRPRPRPQIPPRP	-0.538
RRIRSRPPRLPRPRPRPQIVPRP	-0.32
RRIRSRPPRLPRPRPRPQIYPRP	-0.354
RRIRSRPPRLPRPRPRPQKMPRP	-0.122
RRIRSRPPRLPRPRPRPQLCPRP	0.0696
RRIRSRPPRLPRPRPRPQLFPRP	0.309
RRIRSRPPRLPRPRPRPQMKPRP	-0.32
RRIRSRPPRLPRPRPRPQNSPRP	-0.207
RRIRSRPPRLPRPRPRPQSMPRP	-0.384

Sequence	shrunken log2 fold change
RRIRSRPPRLPRPRPRPQSSPRP	-0.192
RRIRSRPPRLPRPRPRPQTYPRP	-0.16
RRIRSRPPRLPRPRPRPQVEPRP	0.0664
RRIRSRPPRLPRPRPRPQWAPRP	0.0253
RRIRSRPPRLPRPRPRPQYGPRP	-0.118
RRIRSRPPRLPRPRPRPQYPPRP	-0.157
RRIRSRPPRLPRPRPRPRAHPRP	0.409
RRIRSRPPRLPRPRPRPRCTPRP	0.0731
RRIRSRPPRLPRPRPRPRCYPRP	-0.107
RRIRSRPPRLPRPRPRPRDQPRP	-0.0856
RRIRSRPPRLPRPRPRPREAPRP	0.587
RRIRSRPPRLPRPRPRPREIPRP	0.426
RRIRSRPPRLPRPRPRPRFAPRP	0.24
RRIRSRPPRLPRPRPRPRGGPRP	0.84
RRIRSRPPRLPRPRPRPRGYPRP	0.13
RRIRSRPPRLPRPRPRPRIKPRP	-0.00375
RRIRSRPPRLPRPRPRPRLYPRP	0.114
RRIRSRPPRLPRPRPRPRMLPRP	-0.214
RRIRSRPPRLPRPRPRPRNAPRP	0.374
RRIRSRPPRLPRPRPRPRNGPRP	0.308
RRIRSRPPRLPRPRPRPRPTPRP	0.391
RRIRSRPPRLPRPRPRPRQNPRP	-0.0458
RRIRSRPPRLPRPRPRPRTAPRP	0.0119
RRIRSRPPRLPRPRPRPRTDPRP	0.0755
RRIRSRPPRLPRPRPRPRWFPRP	0.0783
